{"source": "paper PMC3666333", "about": "(Nature communications, 2013)", "molecular_target": "the molecule itself", "assay": "SAXS titration", "data": [{"protein": "Gp4D (residues 241-566, 36-kDa), minimal fragment of the T7 gene 4 helicase that forms hexameric rings (domain or fragment, bacteriophage T7, UniProt P03692 241-566, looked up) CHLNGHDREIMEQVWNAGPWIPDGVVSALSLRERIREHLSSEESVGLLFSGCTGINDKTLGARGGEVIMVTSGSGMGKSTFVRQQALQWGTAMGKKVGLAMLEESVEETAEDLIGLHNRVRLRQSDSLKREIIENGKFDQWFDELFGNDTFHLYDSFAEAETDRLLAKLAYMRSGLGCDVIILDHISIVVSASGESDERKMIDNLMTKLKGFAKSTGVVLVVICHLKNPDKGKAHEEGRPVSITDLRGSGALRQLSDTIIALERNQQGDMPNLVLVRILKCRFTGDTGIAGYMEYNKETGWLEPSSYSGEEESHSESTDWSNDTDF", "values": [{"measurement": "binding result", "value": "binds"}]}]}
